{"source": "patent US6034062A", "about": "“Bone morphogenetic protein (BMP)-9 compositions and their uses” (Genetics Institute, Inc., priority 1997, dated 2000)", "molecules": {"B1": {"name": "BMP-9: recombinant human bone morphogenetic protein-9, mature amino acids #1-#110 of SEQ ID NO:9, expressed in CHO cells (protein)", "chain": "TRECSRSCPRTAPQRQVRAVTRRTRMAHVAAGSTLARRKRSAGAGSHCQKTSLRVNFEDIGWDSWIIAPKEYEAYECKGGCFFPLADDVTPTKHAIVQTLVHLKFPTKVG", "modifications": "125I-iodinated as tracer; unlabelled BMP-9 used as the displacing ligand"}}, "key": {"[1]": {"test_system": "kidney plasma membranes", "experiment": "[125I]rhBMP-9 binding to kidney plasma membranes", "parameters": "species or system rat", "procedure": "(§1) To determine potential target tissues for BMP-9, plasma membrane preparations from adult rat organs are screened for specific [^125 I]rhBMP-9 binding. Plasma membranes are prepared by the methods of Neville, J. Biophys Biochem Cytol 8:412-422 (1960) and Ray, Biochim Biophys Acta 196:1-9 (1970) with the following modifications: Fresh tissues from adult male Long-Evans rats are homogenized with 10 strokes of a teflon homogenizer. Plasma membranes are collected from discontinuous sucrose gradients at 37%/41% sucrose interface and the 41%/45% sucrose interface. Homogenization buffer and sucrose solutions are supplemented with 0.7 μg/ml leupeptin, 2 μg/ml aprotinin and 240 μg/ml pefabloc. Protein levels in plasma membrane preparations are determined by the bicinchoninic acid assay (Pierce, Rockford, Ill.) using immunoglobulin G as a standard.\n(§2) BMP-9 binding is carried out by suspending plasma membranes at 30 μg/100μl in binding buffer (136.9 mM NaCl, 5.37 mM KCl, 1.26 mM CaCl2, 0.64 mM MgSO4, 0.34 mM Na2 HPO4, 0.44 mM KH2 PO4, 0.49 mM MgCl2, 25 mM HEPES and 0.5% BSA, pH 7.4) containing o.5 ng [^125 I]rhBMP-9. Binding is allowed to equilibrate by incubation for 16 h at 4° C. […]\n(§3) To verify that this specific binding is of high affinity, a more complete displacement profile is determined with lung and kidney plasma membranes."}, "[2]": {"test_system": "W-20-17", "experiment": "Alkaline phosphatase activity in W-20-17 osteoprogenitor cell line", "type": "cell-based", "conditions": "dose responsive", "procedure": "W-20 cells are plated into 96 well tissue culture plates at a density of 10,000 cells per well in 200 μl of media (DME with 10% heat inactivated fetal calf serum, 2 mM glutamine and 100 U/ml+100 μg/ml streptomycin. The cells are allowed to attach overnight in a 95% air, 5% CO2 incubator at 37° C.\nThe 200 μl of media is removed from each well with a multichannel pipettor and replaced with an equal volume of test sample delivered in DME with 10% heat inactivated fetal calf serum, 2 mM glutamine and 1% penicillin-streptomycin. Test substances are assayed in triplicate.\nThe test samples and standards are allowed a 24 hour incubation period with the W-20 indicator cells. After the 24 hours, plates are removed from the 37° C. incubator and the test media are removed from the cells.\nThe W-20 cell layers are washed 3 times with 200 μl per well of calcium/magnesium free phosphate buffered saline and these washes are discarded.\n50 μl of glass distilled water is added to each well and the assay plates are then placed on a dry ice/ethanol bath for quick freezing. Once frozen, the assay plates are removed from the dry ice/ethanol bath and thawed at 37° C. […]\nThe spectrophotometric absorbance for each well is read at a wavelength of 405 nanometers. […] For example, using known amounts of p-nitrophenol phosphate, absorbance values are generated."}, "[3]": {"test_system": "lung plasma membranes", "experiment": "[125I]rhBMP-9 binding to lung plasma membranes", "parameters": "species or system rat", "procedure": "as §1, §2, §3"}, "[4]": {"test_system": "Chang", "experiment": "125I-BMP-9 binding to Chang liver cell line", "conditions": "iodinated CHO-derived BMP-9", "procedure": "BMP-9 responsiveness in parenchymal liver cells is tested by screening four liver cell lines for their ability to bind iodinated, CHO-derived BMP-9. […] Specific binding of BMP-9 to HepG2 cells is carried out by incubating HepG2 cells grown to confluence in Dulbecco's Modified Eagle's Medium (DME) containing 10% heat-inactivated fetal calf serum (FCS) on gelatinized 6 well plates with 2 ng/ml ^125 I-BMP-9 and increasing concentrations of unlabelled BMP-9 in binding buffer (136.9 mM NaCl, 5.37 mM KCl, 1.26 mM CaCl2, 0.64 mM MgSO4, 0.34 mM Na2 HPO4, 0.44 mM KH2 PO4, 0.49 mM MgCl2, 25 mM HEPES and 0.5% BSA, pH 7.4) for 20 hours at 4° C. to achieve binding equilibrium. This incubation follows a one hour preincubation at 37° C. in binding buffer alone. For crosslinking experiments, the cells were incubated with 500 μM disuccinimidyl suberate for 20 minutes at […] following binding. Cell extracts were analyzed on SDS-PAGE. […] The curvilinear nature of the Scatchard plot indicates negative cooperativity among BMP-9 receptors or that HepG2 cells express at least two populations of BMP-9 receptors with different affinities. Crosslinking analysis on HepG2 cells with ^125 I-BMP-9 yields two binding proteins of apparent molecular weights of 54 and 80 kD. […]"}, "[5]": {"test_system": "A-549 lung epithelial cells", "experiment": "Cell proliferation, [3H]thymidine incorporation, A-549", "type": "cell-based", "conditions": "subconfluent, 24 h", "procedure": "Several cell lines are tested for BMP-9 responsiveness in vitro. Cell proliferation, as indicated by [^3 H]thymidine incorporation, is determined in cell lines derived from kidney and lung. Cell proliferation is determined by measuring [^3 H]thymidine incorporation in subconfluent cells treated for 24 h with or without growth factors. NRK-52E (ATCC CRL 1571), WI-38 (ATCC CCL-75), CCD-11Lu (ATCC CCL-202), CCD-16Lu (ATCC CCL-204), and A-549 (ATCC CCL-185) cell lines are placed at 10^4 cells/well in 96 well plates and assayed for [^3 H]thymidine incorporation as described above. IMCD-3 cells (ATCC #CRL-2123) are cultured in a collagen matrix as described by Barros et al., PNAS USA 92:4412-4416 (1995), and treated with growth factors for 6 days to allow tubule formation."}}}
{"molecule": "B1", "values": [{"measurement": "specific [125I]rhBMP-9 binding", "setting": "[1]; adult rat kidney plasma membranes, displaceable by 100-fold excess of unlabeled rhBMP-9", "value": "evident"}, {"measurement": "Kd", "setting": "[1]; rat kidney plasma membranes", "value": 0.3, "unit": "nM"}, {"measurement": "ED50, stimulation of alkaline phosphatase activity", "setting": "[2]", "value": 4, "unit": "ng/mL"}, {"measurement": "specific [125I]rhBMP-9 binding", "setting": "[3]; adult rat lung plasma membranes, displaceable by 100-fold excess of unlabeled rhBMP-9", "value": "evident"}, {"measurement": "Kd", "setting": "[3]; rat lung plasma membranes", "value": 0.6, "unit": "nM"}, {"measurement": "specific binding of 125I-BMP-9", "setting": "[4]", "value": "to some extent"}, {"measurement": "cell proliferation ([3H]thymidine incorporation)", "setting": "[5]", "value": "inhibited proliferation"}]}
